The target of assay [1] is recombinant hexa-his-streptavidin (UniProt P22629). Description: non-denaturing SDS-PAGE; purified and refolded protein on SDS-PAGE under non-denaturing against denaturing conditions.
Assay [2] deals with TLM-core protein (2xTLM-HA-HBV core with strep-tag III in the spike tip), assembled to TLM-carrier capsid (hepatitis B virus) (UniProt P03146). In words: SPR; Biacore T200; TLM-carrier capsid (TLM-core protein) immobilised on a CM5 chip; streptavidin injected at five concentrations (4.7-75.7 nM) or streptavidin-Ova at six concentrations (1.9-62.5 nM); fitted with the heterogeneous ligand and the bivalent analyte models (1:1 model fitted poorly). (In general: Surface plasmon resonance follows binding to a sensor surface in real time, without labels.)

For assay [3] the target is unchanged.
Assay [4] concerns the target streptavidin-Ova fusion protein (streptavidin, hexa-his tag, ovalbumin). Description: non-denaturing SDS-PAGE; purified and refolded protein on SDS-PAGE under non-denaturing against denaturing conditions.

UniProt P03146, sequence (P03146 whole entry): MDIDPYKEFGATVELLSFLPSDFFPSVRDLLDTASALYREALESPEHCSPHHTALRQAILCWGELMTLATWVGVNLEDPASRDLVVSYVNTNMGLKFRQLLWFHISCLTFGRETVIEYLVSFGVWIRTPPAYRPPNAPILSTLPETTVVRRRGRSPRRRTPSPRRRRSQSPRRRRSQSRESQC

One may read the stoichiometry N as a count of units in the complex or per binding partner. Regarding “recombinant hexa-his-streptavidin (from UniProt P22629 25-183) (natural protein)”, the stoichiometry N in assay [1] worked out at 4. In assay [2], this substance came in with a KD2 (heterogeneous ligand model, set 2, strong interaction) of 4.74 nM; a Ka1 (on-rate, bivalent analyte model, step 1) of 146000 M^- s^−1; a Ka2 (on-rate, bivalent analyte model, step 2) of 8.16e-05 RU^- s^-; a Ka2 (on-rate, heterogeneous ligand model, set 2, strong interaction) of 397000 M^- s^−1. In assay [2], this substance returned a Kd1 (off-rate, bivalent analyte model, step 1) of 0.0213 s⁻¹; a Kd2 (off-rate, bivalent analyte model, step 2) of 0.00126 s⁻¹; a Kd2 (off-rate, heterogeneous ligand model, set 2, strong interaction) of 0.00188 s⁻¹.

Turning to “streptavidin-Ova fusion protein (streptavidin, hexa-his tag, ovalbumin)”, the IFN-γ secreted (ELISA, 72 h) by OT-I CD8+ T-cells co-cultured with BMDCs: Ova-loaded TLM-carrier capsid compared with free streptavidin-Ova in assay [3] is > 10 fold. For the same substance, in assay [4], the stoichiometry N was found to be 4. Further, in assay [2], the KD2 (heterogeneous ligand model, set 2, strong interaction) was 1.97 nM; the Ka1 (on-rate, bivalent analyte model, step 1) worked out at 94200 M^- s^−1; the Ka2 (on-rate, bivalent analyte model, step 2) amounted to 0.000428 RU^- s^-; the Ka2 (on-rate, heterogeneous ligand model, set 2, strong interaction) was 356000 M^- s^−1. In assay [2], this substance had a Kd1 (off-rate, bivalent analyte model, step 1) of 0.0104 s⁻¹; a Kd2 (off-rate, bivalent analyte model, step 2) of 0.000823 s⁻¹; a Kd2 (off-rate, heterogeneous ligand model, set 2, strong interaction) of 0.0007 s⁻¹; a dissociation half-life (t 1/2) of the strong binding interaction of 16.5 min.

(Values after article PMC5575276.)
